Experimental data taken from PMC12260524, “Identification of a VPS29 isoform with restricted association to Retriever and Retromer accessory proteins through autoinhibition” (Proceedings of the National Academy of Sciences of the …, 2025).

Molecular target: T1, GST-tagged VPS29C (Homo sapiens, UniProt Q9UBQ0)
T1 construct: made in house; host or cells: E. coli BL21 (DE3)
Assay: Isothermal titration calorimetry (ITC) of peptides with GST-VPS29C
Format: binding
Conditions: 25 °C, single-site model
Protocol: All the bacterial constructs were expressed in BL21 (DE3) competent cells using the standard autoinduction method as described previously. Cell cultures were harvested by centrifugation at 6,000 × g for 5 min at 4 °C and the cell pellets were then stored at −80 °C until cell lysis. To obtain individual Retromer subunit including VPS26A, GST-VPS29B, and GST-VPS29C, the frozen cell pellet was resuspended in protein buffer (50 mM Tris-HCl pH 7.5, 200 mM NaCl, 2 mM β-mercaptoethanol) supplemented with 50 μg/mL benzamidine, 100 units of DNase I. In all cases, the resuspended cells were lysed through a Constant System TS-series high pressure cell disruptor. The soluble homogenate cleared by centrifugation was loaded onto either Talon resin (Clontech) for His-tagged VPS26A or Glutathione Sepharose (GE Healthcare) for GST-tagged VPS29B/VPS29C. The fusion-tagged containing proteins eluted from the resin were then further purified using size exclusion chromatography (SEC) on a HiLoad® 16/600 Superdex 200 or Superdex 75 column equilibrated with protein buffer. For Retromer, the soluble homogenate was first loaded onto Talon resin (Clontech) followed by glutathione Sepharose (GE healthcare) to obtain the correct stoichiometry ratio of the Retromer complex. Removal of the GST tag from the constructs was performed using an on-column cleavage approach with PreScission protease. The fusion tag free protein was further purified using SEC on a HiLoad® 16/600 Superdex 200 column as described above. Protein integrity was validated using SDS-PAGE gel and concentration was measured using Nanodrop at OD280.
All microcalorimetry experiments were carried out at 25 °C using a PEAQ ITC (Malvern, UK) in protein buffer. […] In the macrocyclic peptide experiment, the equivalent percentage (v/v) of DMSO was added into the target protein to avoid buffer mismatch. All ITC experiments were performed with a single injection of 0.4 μL followed by a series of 12 injections of 3.2 μL each, spaced 180 s apart, and stirred at 750 rpm. To calculate the heat exchange of interactions, the observed peaks were integrated with the subtraction of heat of dilution from the background. The thermodynamic parameters including Kd, ΔH, ΔG, and −TΔS were obtained by fitting and normalizing the data to a single-site binding model using Malvern software package. The stoichiometry was adjusted initially, and if the value was near 1, N was set to exactly 1.0 for computation. To ensure the data were reproducible, each experiment was run at least twice.

[1] = 300 μM peptide into 10 μM GST-VPS29C

-TΔS [1] [kJ/mol]	ΔG [1] [kJ/mol]	ΔH [1] [kJ/mol]	Kd (300 μM peptide titrated into 10 μM GST-VPS29C, protein buffer (50 mM Tris-HCl pH 7.5, 200 mM NaCl, 2 mM β-mercaptoethanol), each experiment run at least twice)	Substance
17.8 ± 8.54	-22 ± 0.628	-39.9 ± 10.5	–	VPS35L 16-38: natural peptide of the amino-terminal region of VPS35L containing a Pro-Leu motif (EFASCRLEAVPLEFGDYHPLKPI)
–	–	–	No binding detected	VPS35L 28-37: natural peptide of the amino-terminal region of VPS35L containing a Pro-Leu motif (EFGDYHPLKP)
